# According to patent publication US20250066745A1, “MUTANTS AND USE THEREOF” (BGI SHENZHEN, priority 2021, published 2025):
# How the values were obtained:
# [1] = Luminescence activity assay of purified Gaussia luciferase mutants on coelenterazine derivative ZS2; format: biochemical; set-up: key to Activity of mutant relative to wild-type Gaussia luciferase without the signal peptide: ratio of mutant luminescence intensity to wild-type Gaussia luciferase; settings: Substrate ZS2 (Table 16)
# Description: (§1) In this Example, the protein concentration was determined with a BCA quantitative kit (Thermo Scientific™ Pierce™ BCA Protein Assay Kit) accurately. The purified luciferase obtained in Example 5 was diluted with diluent (50 mM Tris-HCl, pH 8.0, 100 mM NaCl, 0.1% (v/v) Tween-20) to 1 μg/mL. The diluted luciferase, taken for 10 μL, was moved into a black 96-well plate, then added with 90 μL of the substrates coelenterazine, fluoro-coelenterazine or coelenterazine derivative ZS2 (purchased from Biolab) which was diluted into 100 μM with the same diluent, and the luminescence intensity of the plate was read with a self-luminescence module of a microplate reader. The mutation site of the mutant, the measured luminescence intensity, the ratio of luminescence intensities of the advantageous mutants to the wild-type Gaussia luciferase without the signal peptide having the sequence shown in SEQ ID NO: 3 are shown in Table 15. The results of catalytic activity assay of the advantageous mutants relative to the wild-type Gaussia luciferase without the signal peptide having the sequence shown in SEQ ID NO: 3 on substrate coelenterazine are shown in FIG. 6. […] The results of catalytic activity assay of the advantageous mutants relative to the wild-type Gaussia luciferase without the signal peptide having the sequence shown in SEQ ID NO: 3 on substrate fluoro-coelenterazine are shown in FIG. 7.
# (§2) The new mutant library constructed in Example 7 was screened and tested for substrate specificity. Expression and purification schemes were the same as that in Example 5, and the activity assay scheme was the same as that in Example 6. The respective catalytic activities of combinatorial mutants on coelenterazine, fluoro-coelenterazine or coelenterazine derivative ZS2, and coelenterazine derivative ZS26 (purchased from BIOLAB) were assayed, and comparisons among the substrate specificities of the combinatorial mutants were based on the ratios of catalytic activities on two corresponding substrates.
# [2] = Luminescence activity assay of purified Gaussia luciferase mutants on coelenterazine; format: biochemical; set-up: key to Activity of mutant relative to wild-type Gaussia luciferase without the signal peptide: ratio of mutant luminescence intensity to wild-type Gaussia luciferase; settings: Substrate CTZ (Table 16)
# Description: as §1, §2
Activity of mutant relative to wild-type Gaussia luciferase without the signal peptide [1],Activity of mutant relative to wild-type Gaussia luciferase without the signal peptide [2],Molecule
1.379,0.779,"N27D V29E A30G V31I A32V S33K A36I T37D L40T: Gaussia luciferase mutant (protein, SIGNAL (1)..(17), Gaussia luciferase mutant) MGVKVLFALICIAVAEAKPTENNEDFDIEGIVKNFIDTDTDADRGKLPGKKLPLEVLKEMEANARKAGCTRGCLICLSHIKCTPKMKKFIPGRCHTYEGDKESAQGGIGEAIVDIPEIPGFKDLEPMEQFIAQVDLCVDCTTGCLKGLANVQCSDLLKKWLPQRCATFASKIQGQVDKIKGAGGD"
0.146,0.981,"N27D V29S V31L A32V S33G A36N T37D L40R: Gaussia luciferase mutant (protein, SIGNAL (1)..(17), Gaussia luciferase mutant) MGVKVLFALICIAVAEAKPTENNEDFDISALVGNFNDTDRDADRGKLPGKKLPLEVLKEMEANARKAGCTRGCLICLSHIKCTPKMKKFIPGRCHTYEGDKESAQGGIGEAIVDIPEIPGFKDLEPMEQFIAQVDLCVDCTTGCLKGLANVQCSDLLKKWLPQRCATFASKIQGQVDKIKGAGGD"
1.751,0.736,"A42G Q152K S170S G174N Q175E K178S A182Y G183A: Gaussia luciferase mutant (protein, SIGNAL (1)..(17), Gaussia luciferase mutant) MGVKVLFALICIAVAEAKPTENNEDFNIVAVASNFATTDLDGDRGKLPGKKLPLEVLKEMEANARKAGCTRGCLICLSHIKCTPKMKKFIPGRCHTYEGDKESAQGGIGEAIVDIPEIPGFKDLEPMEQFIAQVDLCVDCTTGCLKGLANVKCSDLLKKWLPQRCATFASKIQNEVDSIKGYAGD"
1.402,1.050,"Q152R Q163S T167G S170D G174K A182Y G183A: Gaussia luciferase mutant (protein, SIGNAL (1)..(17), Gaussia luciferase mutant) MGVKVLFALICIAVAEAKPTENNEDFNIVAVASNFATTDLDADRGKLPGKKLPLEVLKEMEANARKAGCTRGCLICLSHIKCTPKMKKFIPGRCHTYEGDKESAQGGIGEAIVDIPEIPGFKDLEPMEQFIAQVDLCVDCTTGCLKGLANVRCSDLLKKWLPSRCAGFADKIQKQVDKIKGYAGD"
0.698,1.197,"Q152H Q163D T167S S170N A182L G183A: Gaussia luciferase mutant (protein, SIGNAL (1)..(17), Gaussia luciferase mutant) MGVKVLFALICIAVAEAKPTENNEDFNIVAVASNFATTDLDADRGKLPGKKLPLEVLKEMEANARKAGCTRGCLICLSHIKCTPKMKKFIPGRCHTYEGDKESAQGGIGEAIVDIPEIPGFKDLEPMEQFIAQVDLCVDCTTGCLKGLANVHCSDLLKKWLPDRCASFANKIQGQVDKIKGLAGD"
1.011,0.992,"Q152R Q163S T167G S170V G174K Q175E K178S A182Y G183A: Gaussia luciferase mutant (protein, SIGNAL (1)..(17), Gaussia luciferase mutant) MGVKVLFALICIAVAEAKPTENNEDFNIVAVASNFATTDLDADRGKLPGKKLPLEVLKEMEANARKAGCTRGCLICLSHIKCTPKMKKFIPGRCHTYEGDKESAQGGIGEAIVDIPEIPGFKDLEPMEQFIAQVDLCVDCTTGCLKGLANVRCSDLLKKWLPSRCAGFAVKIQKEVDSIKGYAGD"
1.183,1.079,"Q152K Q163D S170N G174K Q175E K178T A182L G183A: Gaussia luciferase mutant (protein, SIGNAL (1)..(17), Gaussia luciferase mutant) MGVKVLFALICIAVAEAKPTENNEDFNIVAVASNFATTDLDADRGKLPGKKLPLEVLKEMEANARKAGCTRGCLICLSHIKCTPKMKKFIPGRCHTYEGDKESAQGGIGEAIVDIPEIPGFKDLEPMEQFIAQVDLCVDCTTGCLKGLANVKCSDLLKKWLPDRCATFANKIQKEVDTIKGLAGD"
0.064,0.006,"Q152H Q163S T167G S170V G174N G183A: Gaussia luciferase mutant (protein, SIGNAL (1)..(17), Gaussia luciferase mutant) MGVKVLFALICIAVAEAKPTENNEDFNIVAVASNFATTDLDADRGKLPGKKLPLEVLKEMEANARKAGCTRGCLICLSHIKCTPKMKKFIPGRCHTYEGDKESAQGGIGEAIVDIPEIPGFKDLEPMEQFIAQVDLCVDCTTGCLKGLANVHCSDLLKKWLPSRCAGFAVKIQNQVDKIKGAAGD"
0.089,0.079,"Q152H Q163T T167S S170D G174K K178N A182Y G183N: Gaussia luciferase mutant (protein, SIGNAL (1)..(17), Gaussia luciferase mutant) MGVKVLFALICIAVAEAKPTENNEDFNIVAVASNFATTDLDADRGKLPGKKLPLEVLKEMEANARKAGCTRGCLICLSHIKCTPKMKKFIPGRCHTYEGDKESAQGGIGEAIVDIPEIPGFKDLEPMEQFIAQVDLCVDCTTGCLKGLANVHCSDLLKKWLPTRCASFADKIQKQVDNIKGYNGD"
0.587,1.302,"K66R P84A E102S S103I A104G E110A L124M V138E: Gaussia luciferase mutant (protein, SIGNAL (1)..(17), Gaussia luciferase mutant) MGVKVLFALICIAVAEAKPTENNEDFNIVAVASNFATTDLDADRGKLPGKKLPLEVLKEMEANARRAGCTRGCLICLSHIKCTAKMKKFIPGRCHTYEGDKSIGQGGIGAAIVDIPEIPGFKDMEPMEQFIAQVDLCEDCTTGCLKGLANVQCSDLLKKWLPQRCATFASKIQGQVDKIKGAGGD"
4.457,0.375,"P84A E102S S103T A104G E110A L124M V138E: Gaussia luciferase mutant (protein, SIGNAL (1)..(17), Gaussia luciferase mutant) MGVKVLFALICIAVAEAKPTENNEDFNIVAVASNFATTDLDADRGKLPGKKLPLEVLKEMEANARKAGCTRGCLICLSHIKCTAKMKKFIPGRCHTYEGDKSTGQGGIGAAIVDIPEIPGFKDMEPMEQFIAQVDLCEDCTTGCLKGLANVQCSDLLKKWLPQRCATFASKIQGQVDKIKGAGGD"
3.079,0.626,"K66R P84L E102D S103T E110A V138E: Gaussia luciferase mutant (protein, SIGNAL (1)..(17), Gaussia luciferase mutant) MGVKVLFALICIAVAEAKPTENNEDFNIVAVASNFATTDLDADRGKLPGKKLPLEVLKEMEANARRAGCTRGCLICLSHIKCTLKMKKFIPGRCHTYEGDKDTAQGGIGAAIVDIPEIPGFKDLEPMEQFIAQVDLCEDCTTGCLKGLANVQCSDLLKKWLPQRCATFASKIQGQVDKIKGAGGD"
4.252,0.174,"P84A E102A S103T E110A V138D: Gaussia luciferase mutant (protein, SIGNAL (1)..(17), Gaussia luciferase mutant) MGVKVLFALICIAVAEAKPTENNEDFNIVAVASNFATTDLDADRGKLPGKKLPLEVLKEMEANARKAGCTRGCLICLSHIKCTAKMKKFIPGRCHTYEGDKATAQGGIGAAIVDIPEIPGFKDLEPMEQFIAQVDLCDDCTTGCLKGLANVQCSDLLKKWLPQRCATFASKIQGQVDKIKGAGGD"
